Target: SARS-CoV-2 WHU01 RBD, monomeric (SARS-CoV-2 (WHU01), UniProt P0DTC2)
Test: SPR

B1: horse ACE2 extracellular domain, human IgG1 Fc fusion protein (Fc fusion)
chain: QSTTEDLAKTFLEKFNSEAEELSHQSSLASWSYNTNITDENVQKMNEAGARWSAFYEEQCKLAKTYPLEEIQNLTVKRQLQALQQSGSSVLSADKSKLNEILNTMSTIYSTGKVCNPSNPQECLLLEPGLDAIMENSKDYNQRLWAWEGWRSEVGKQLRPLYEEYVVLKNEMARANNYEDYGDYWRGDYEAEGPSGYDYSRDQLIEDVERTFAEIKPLYEHLHAYVRAKLMDTYPSHINPTGCLPAHLLGDMWGRFWTNLYSLTVPFGQKPNIDVTDAMVDQSWDAKRIFEEAEKFFVSVGLPNMTQGFWENSMLTEPGDGRKVVCHPTAWDLGKGDFRIKMCTKVTMDDFLTAHHEMGHIQYDMAYAVQPYLLRNGANEGFHEAVGEIMSLSAATPNHLKAIGLLPPDFYEDSETEINFLLKQALTIVGTLPFTYMLEKWRWMVFKGEIPKEEWMKKWWEMKREIVGVVEPVPHDETYCDPAALFHVANDYSFIRYYTRTIYQFQFQEALCQTAKHEGPLHKCDISNSTEAGQKLLQMLSLGKSEPWTLALERIVGVKNMDVRPLLNYFEPLFTWLKDQNKNSFVGWSTNWSPYADQSIKVRISLKSALGEKSYEWNDNEMYLFQSSVAYAMRVYFLKAKNQTILFGEEDVWVSDLKPRISFNFFVTSPKNASDIIPRTDVEEAIRMSRSRINDAFRLDDNTLEFLGIQPTLGPPYQPPVTV
- Kd: 89.8 nM

B2: cat ACE2 extracellular domain, human IgG1 Fc fusion protein (Fc fusion)
chain: QSTTEELAKTFLEKFNHEAEELSYQSSLASWNYNTNITDENVQKMNEAGAKWSAFYEEQSKLAKTYPLAEIHNTTVKRQLQALQQSGSSVLSADKSQRLNTILNAMSTIYSTGKACNPNNPQECLLLEPGLDDIMENSKDYNERLWAWEGWRAEVGKQLRPLYEEYVALKNEMARANNYEDYGDYWRGDYEEEWTDGYNYSRSQLIKDVEHTFTQIKPLYQHLHAYVRAKLMDTYPSRISPTGCLPAHLLGDMWGRFWTNLYPLTVPFGQKPNIDVTDAMVNQSWDARRIFKEAEKFFVSVGLPNMTQGFWENSMLTEPGDSRKVVCHPTAWDLGKGDFRIKMCTKVTMDDFLTAHHEMGHIQYDMAYAVQPFLLRNGANEGFHEAVGEIMSLSAATPNHLKTIGLLSPGFSEDSETEINFLLKQALTIVGTLPFTYMLEKWRWMVFKGEIPKEQWMQKWWEMKREIVGVVEPVPHDETYCDPASLFHVANDYSFIRYYTRTIYQFQFQEALCRIAKHEGPLHKCDISNSSEAGKKLLQMLTLGKSKPWTLALEHVVGEKKMNVTPLLKYFEPLFTWLKEQNRNSFVGWNTDWRPYADQSIKVRISLKSALGDEAYEWNDNEMYLFRSSVAYAMREYFSKVKNQTIPFVEDNVWVSNLKPRISFNFFVTASKNVSDVIPRSEVEEAIRMSRSRINDAFRLDDNSLEFLGIQPTLSPPYQPPVT
- Kd: 554 nM
